Read-outs that look alike come from different tables or passages of the source.
T1: human factor Xa (human, UniProt P00742 41-179; P00742 235-488)
T1 chain 1: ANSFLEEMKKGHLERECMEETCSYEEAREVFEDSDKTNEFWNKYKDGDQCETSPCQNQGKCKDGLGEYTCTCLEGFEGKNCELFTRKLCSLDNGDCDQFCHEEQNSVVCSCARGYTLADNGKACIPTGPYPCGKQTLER
T1 chain 2: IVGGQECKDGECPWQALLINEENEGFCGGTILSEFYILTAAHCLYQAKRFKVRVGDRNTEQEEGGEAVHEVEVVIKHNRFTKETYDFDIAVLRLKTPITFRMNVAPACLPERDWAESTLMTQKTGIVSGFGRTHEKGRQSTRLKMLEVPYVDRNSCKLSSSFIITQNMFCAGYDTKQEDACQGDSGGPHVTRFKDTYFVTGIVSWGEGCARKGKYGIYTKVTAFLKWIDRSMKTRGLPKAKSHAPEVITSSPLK

T2: human factor XIIa (human, UniProt P00748 20-615, biotinylated with Biotin Ester (Zymed); sites not stated)
T2 chain: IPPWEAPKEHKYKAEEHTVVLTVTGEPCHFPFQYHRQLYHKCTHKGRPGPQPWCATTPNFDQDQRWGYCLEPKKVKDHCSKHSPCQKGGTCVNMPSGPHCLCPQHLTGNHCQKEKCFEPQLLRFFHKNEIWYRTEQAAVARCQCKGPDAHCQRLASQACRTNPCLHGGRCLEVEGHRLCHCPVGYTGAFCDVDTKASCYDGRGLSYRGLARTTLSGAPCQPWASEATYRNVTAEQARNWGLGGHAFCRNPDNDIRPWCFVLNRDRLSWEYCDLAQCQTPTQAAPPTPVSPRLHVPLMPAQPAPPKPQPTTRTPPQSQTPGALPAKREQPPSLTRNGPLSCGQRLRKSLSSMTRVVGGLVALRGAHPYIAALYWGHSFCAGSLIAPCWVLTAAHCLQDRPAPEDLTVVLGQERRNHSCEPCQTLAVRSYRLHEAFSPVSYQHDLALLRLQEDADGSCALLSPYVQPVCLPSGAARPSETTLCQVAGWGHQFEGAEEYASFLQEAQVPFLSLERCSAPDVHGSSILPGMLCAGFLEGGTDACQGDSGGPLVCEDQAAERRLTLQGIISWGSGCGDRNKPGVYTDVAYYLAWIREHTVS


Key:
Assay in all cases: enzyme inhibition
human factor Xa [1] = biological target: T1, human factor Xa
human factor XIIa [2] = biological target: T2, human factor XIIa
human plasma kallikrein [3] = biological target: T3, human plasma kallikrein (human, UniProt P03952 20-638)
T3 sequence (P03952 20-638): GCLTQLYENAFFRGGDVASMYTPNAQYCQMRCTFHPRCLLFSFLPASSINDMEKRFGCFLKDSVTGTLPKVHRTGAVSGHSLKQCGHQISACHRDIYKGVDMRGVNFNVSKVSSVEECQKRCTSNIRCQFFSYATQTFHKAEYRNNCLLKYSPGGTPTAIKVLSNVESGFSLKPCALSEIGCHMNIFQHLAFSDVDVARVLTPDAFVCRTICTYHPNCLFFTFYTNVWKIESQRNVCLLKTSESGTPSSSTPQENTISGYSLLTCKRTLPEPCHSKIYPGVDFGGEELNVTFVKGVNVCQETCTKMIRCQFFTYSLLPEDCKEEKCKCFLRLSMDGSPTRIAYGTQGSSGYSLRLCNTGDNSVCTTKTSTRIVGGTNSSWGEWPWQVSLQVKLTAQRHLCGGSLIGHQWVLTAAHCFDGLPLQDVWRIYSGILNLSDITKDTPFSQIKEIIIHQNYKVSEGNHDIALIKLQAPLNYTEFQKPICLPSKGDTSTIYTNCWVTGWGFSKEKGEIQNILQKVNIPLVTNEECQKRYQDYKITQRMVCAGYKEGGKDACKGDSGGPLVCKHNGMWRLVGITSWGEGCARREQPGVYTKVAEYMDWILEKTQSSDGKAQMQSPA

human factor Xa [4] = biological target: T1, human factor Xa
human factor XIIa [5] = biological target: T2, human factor XIIa
human plasma kallikrein [6] = biological target: T3, human plasma kallikrein; remark: listed apart in the source
human factor XIIa [7] = biological target: T2, human factor XIIa
human plasma kallikrein [8] = biological target: T3, human plasma kallikrein; remark: listed apart in the source
human factor XIIa [9] = biological target: T2, human factor XIIa

| Binder | Ki (human factor Xa [1]) | Ki (human plasma kallikrein [3]) | Ki (human factor Xa [4]) | Ki (human factor XIIa [5]) | Ki (human plasma kallikrein [6]) | further results |
| --- | --- | --- | --- | --- | --- | --- |
| TW6163 (protein) EVVREVCSEQAETGPCRAMHSRWYFDVTEGKCAPFFYGGCGGNRNNFDTEEYCMAVCGSAI | 457 nM | 4.7 nM |  |  |  | Ki (human factor XIIa [2]): 4530 nM |
| TW118 (protein) EVCSEQAETGPCRAMISRWYFDVTEGKCAPFFYGGCRGNRNNFDTEEYCMAVCGSAI |  |  | 68 nM | 13000 nM | 6 nM |  |
| CL006 (protein) EVVREVCSEQAETGPCRAMISAWYFDVTEGKCAPFFYGGCGGNRNNFDTEEYCMAVCGSAI | 133 nM | 110 nM |  |  |  | Ki (human factor XIIa [2]): 89600 nM |
| TW6180 (protein) EVVREVCSEQAETGPCRAMFSRWYFDVTEGKCAPFFYGGCGGNRNNFDTEEYCMAVCGSAI | 39 nM | 70 nM |  |  |  | Ki (human factor XIIa [2]): 885 nM |
| BG001 (protein) EVVREVCSEQAETGPCRAMLSRWYFDVTEGKCAPFFYGGCGGNRNNFDTEEYCMAVCGSAI | 204 nM | 38 nM |  |  |  | Ki (human factor XIIa [2]): 489 nM |
| TW6154 (protein) EVVREVCSEQAETGPCRAMISRWYFDVTEGKCAPFFYGGCLGNRNNFDTEEYCMAVCGSAI |  |  | 39 nM | 915 nM | 11 nM |  |
| TW6168 (protein) EVVREVCSEQAETGPCRAMILRWYFDVTEGKCAPFFYGGCGGNRNNFDTEEYCMAVCGSAI | 395 nM | 25.8 nM |  |  |  | Ki (human factor XIIa [2]): 3520 nM |
| TW6208 (protein) EVVREVCSEQAETGPCRGMISRWYFDVTEGKCAPFFYGGCGGNRNNFDTEEYCMAVCGSAI |  |  |  |  |  | Ki (human factor XIIa [7]): 369 nM |
| TW6140 (protein) EVVREVCSEQAETGPCRAMISRWYFDVTEGKCAPFFYGGCNGNRNNFDTEEYCMAVCGSAI |  |  |  | 475 nM | 35 nM |  |
| TW6155 (protein) EVVREVCSEQAETGPCRAMISRWYFDVTEGKCAPFFYGGCMGNRNNFDTEEYCMAVCGSAI |  |  | 27 nM |  | 11 nM |  |
| TW6172 (protein) EVVREVCSEQAETGPCRAMASRWYFDVTEGKCAPFFYGGCGGNRNNFDTEEYCMAVCGSAI | 1460 nM | 315 nM |  |  |  |  |
| DD128 (protein) EVVREVCSEQAETGPCRAMISLWYFDVTEGKCAPFFYGGCGGNRNNFDTEEYCMAVCGSAI |  |  | 37 nM |  | 44 nM |  |
| TW116 (protein) EVCSEQAETGPCRAMIIRWYFDVTEGKCAPFFYGGCGGNRNNFDTEEYCMAVCGSAI | 806 nM | 145 nM |  |  |  |  |
| TW6179 (protein) EVVREVCSEQAETGPCRAGISRWYFDVTEGKCAPFFYGGCGGNRNNFDTEEYCMAVCGSAI |  |  |  |  |  | Ki (human factor XIIa [7]): 368 nM; Ki (human plasma kallikrein [8]): 78 nM |
| TW6209 (protein) EVVREVCSEQAETGPCRAMISHWYFDVTEGKCAPFFYGGCGGNRNNFDTEEYCMAVCGSAI |  |  | 613 nM | 184 nM | 81 nM |  |
| DD105 (protein) EVVREVCSEQAETGPCRAMIWRWYFDVTEGKCAPFFYGGCGGNRNNFDTEEYCMAVCGSAI | 320 nM | 18 nM |  |  |  | Ki (human factor XIIa [2]): 198 nM |

| Binder | Ki (human factor Xa [1]) | Ki (human plasma kallikrein [3]) | Ki (human factor Xa [4]) | Ki (human factor XIIa [5]) | Ki (human plasma kallikrein [6]) | further results |
| --- | --- | --- | --- | --- | --- | --- |
| TW6211 (protein) EVVREVCSEQAETGPCRAMISKWYFDVTEGKCAPFFYGGCGGNRNNFDTEEYCMAVCGSAI |  |  |  | 402 nM | 184 nM |  |
| TW6174 (protein) EVVREVCSEQAETGPCRALHSRWYFDVTEGKCAPFFYGGCGGNRNNFDTEEYCMAVCGSAI |  |  |  |  |  | Ki (human factor XIIa [9]): 2800 nM |
| AL301 (protein) EVVREVCSEQAETGPCRAMISRWYFDVTEGKCAPFLYGGCGGNRNNFDTEEYCMAVCGSAI |  |  |  | 1560 nM | 216 nM |  |
| TW6173 (protein) EVVREVCSEQAETGPCRAAHSRWYFDVTEGKCAPFFYGGCGGNRNNFDTEEYCMAVCGSAI |  |  |  |  |  | Ki (human factor XIIa [9]): 1430 nM |
| TW6142 (protein) EVVREVCSEQAETGPCRAMISRWYFDVTEGKCAPFVYGGCGGNRNNFDTEEYCMAVCGSAI |  |  | 225 nM | 7970 nM | 18 nM |  |
| TW6157 (protein) EVVREVCSEQAETGPCRAMISRWYFDVTEGKCAPFFYGGCSGNRNNFDTEEYCMAVCGSAI |  |  | 168 nM | 511 nM | 40 nM |  |
| BG031 (protein) EVVREVCSEQAEVGPCRAMISRWYFDVTEGKCAPFFYGGCGGNRNNFDTEEYCMAVCGSAI |  |  |  |  |  | Ki (human factor XIIa [7]): 498 nM; Ki (human plasma kallikrein [8]): 34 nM |
| TW6138 (protein) EVVREVCSEQAETGPCRAMISRWYFDVTEGKCAPFFYGGCKGNRNNFDTEEYCMAVCGSAI |  |  | 309 nM | 921 nM | 18 nM |  |
| DD103 (protein) EVVREVCSEQAETGPCRAMIFRWYFDVTEGKCAPFFYGGCGGNRNNFDTEEYCMAVCGSAI | 110 nM | 17 nM |  |  |  | Ki (human factor XIIa [2]): 2130 nM |
| BG012 (protein) EVVREVCSEQAETGPCRAMISTWYFDVTEGKCAPFFYGGCGGNRNNFDTEEYCMAVCGSAI | 116 nM |  |  |  |  | Ki (human factor XIIa [2]): 40 nM |
| TW6147 (protein) EVVREVCSEQAETGPCRAMISRWYFDVTEGKCAPFFYGGCAGNRNNFDTEEYCMAVCGSAI |  |  | 179 nM | 1090 nM | 35 nM |  |
| BG032 (protein) EVVREVCSEQAESGPCRAMISRWYFDVTEGKCAPFFYGGCGGNRNNFDTEEYCMAVCGSAI |  |  |  |  |  | Ki (human factor XIIa [7]): 731 nM; Ki (human plasma kallikrein [8]): 49 nM |
| DD104 (protein) EVVREVCSEQAETGPCRAMIYRWYFDVTEGKCAPFFYGGCGGNRNNFDTEEYCMAVCGSAI | 345 nM | 15 nM |  |  |  | Ki (human factor XIIa [2]): 237 nM |
| AL302 (protein) EVVREVCSEQAETGPCRAMISRWYFDVTEGKCAPFGYGGCGGNRNNFDTEEYCMAVCGSAI |  |  | 316 nM |  | 39 nM |  |
| DD112 (protein) EVVREVCSEQAETGPCRAVISRWYFDVTEGKCAPFFYGGCGGNRNNFDTEEYCMAVCGSAI |  |  |  |  |  | Ki (human factor XIIa [7]): 998 nM; Ki (human plasma kallikrein [8]): 6.8 nM |

From patent publication US6906033 (dated 2005)
